Like-named read-outs stand apart in the source and are kept apart here. Where a SMILES comes first, the peptide text is derived from it. The star is where a group is joined. Biotin = O=C1N[C@H]2[C@H](CS[C@H]2CCCCC(=O)*)N1
Tests used:
[1] = phage display; cited from earlier work
[2] = test system: human adipose-derived stem cells; experiment: Binding to adipose-derived stem cells
Description: In another embodiment, the pharmaceutically active agent comprises a cell. Thus, a coating composition embodiment includes at least one peptide having binding specificity to bone coupled to at least one peptide having binding specificity for cells. Such coating composition may further include cells bound to the at least one peptide having binding specificity for the cells. For example, RGDX peptides wherein X is any amino acid (SEQ ID NO:119) have been described as binding stem cells, mesenchymal stem cells, and osteoblasts.

stem cells = settings: cited from earlier work
BMP4 = biological target: T1, BMP4 (Homo sapiens, UniProt P12644); experiment: ELISA-format binding to BMP family members; settings: ELISA-format assay
T1 sequence (P12644 293-408): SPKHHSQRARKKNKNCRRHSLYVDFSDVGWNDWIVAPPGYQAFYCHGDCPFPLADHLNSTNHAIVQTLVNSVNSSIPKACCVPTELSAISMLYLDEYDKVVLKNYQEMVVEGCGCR
Procedure: (§1) Exemplary peptides were tested for their ability to bind with specificity to members of the BMP family in an ELISA-format assay. […] For example, BMP2-mediates transdifferentiation of C2C12 myoblasts into osteoblasts; and when treated with BMP-2, the alkaline phosphatase activity in C2C12 myoblasts was induced.

BMP7 = biological target: T2, BMP7 (Homo sapiens, UniProt P18075); experiment: ELISA-format binding to BMP family members; settings: ELISA-format assay
T2 sequence (P18075 293-431): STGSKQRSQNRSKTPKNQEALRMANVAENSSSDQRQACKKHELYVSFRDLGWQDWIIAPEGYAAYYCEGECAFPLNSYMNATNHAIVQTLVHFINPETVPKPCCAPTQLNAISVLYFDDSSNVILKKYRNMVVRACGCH
Procedure: as §1

BMP2 = biological target: T3, BMP2 (Homo sapiens, UniProt P12643); experiment: ELISA-format binding to BMP family members; settings: ELISA-format assay
T3 sequence (P12643 283-396): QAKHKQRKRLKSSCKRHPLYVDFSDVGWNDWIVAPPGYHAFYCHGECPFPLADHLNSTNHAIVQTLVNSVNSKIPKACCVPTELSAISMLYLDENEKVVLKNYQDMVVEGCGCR
Procedure: as §1

BMP14 = biological target: T4, BMP14 (Homo sapiens, UniProt P43026); experiment: ELISA-format binding to BMP family members; settings: ELISA-format assay
T4 sequence (P43026 382-501): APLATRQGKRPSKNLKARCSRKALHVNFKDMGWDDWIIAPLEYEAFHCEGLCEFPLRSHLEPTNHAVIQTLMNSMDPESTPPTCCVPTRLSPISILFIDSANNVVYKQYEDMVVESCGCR
Procedure: as §1

[3] = biological target: demineralized cortical bone (DCB); experiment: Biotinylated peptide binding to demineralized cortical bone
Procedure: (§2) Relative binding strengths of the peptides to bone, also used as a measure of binding specificity, were determined by testing serial dilutions of the peptide for binding to bone, as represented by DBM. Plotting the absorbance observed across the concentration range for each peptide sequence yielded a binding curve of the peptides to its target substrate from which can be determined an EC50. The goal of the screenings and selections was to identify one or more peptides that bind to the selected substrate with binding specificity, with an EC50 of less than or equal to about 10 μM, and for some embodiments, in the nanomolar range (<1 μM). […] As a specific example, DBM was placed in a microtiter plate at a concentration of 3 mg equivalents per well, and then the wells were blocked with buffer containing 1% BSA for 1 hour at room temperature. The buffer containing 1% BSA was then aspirated from each well, and added to the wells were the serial dilutions of biotinylated peptide. The microtiter plates were incubated for 1 hour at room temperature on a plate shaker. The DBM was then allowed to settle, and the buffer was then aspirated from the wells. The DBM was washed three times with buffer-T, and then streptavidin-alkaline phosphatase was added. The microtiter plates were incubated for 1 hour at room temperature on a plate shaker. The DBM was then allowed to settle, and the buffer was then aspirated from the wells. The DBM was washed three times with buffer-T, pNPP (p-nitrophenyl phosphate) was used to develop the assay, and the absorbance was recorded at 405 nm. An estimate of the relative affinity (binding specificity, EC50) of a peptide for bone can be made by determining the concentration of peptide that gives one-half the maximal signal in the assay. Using the methodology illustrated in Example 1, the peptides illustrated in Table 3 were also tested for relative binding strength to demineralized cortical bone, and to cancellous bone, additional evidence of binding specificity for bone.

[4] = biological target: demineralized bone matrix (DBM); experiment: Biotinylated peptide binding to demineralized bone matrix (ELISA-type, streptavidin-alkaline phosphatase/pNPP); parameters: species or system human
Procedure: Relative binding strengths of the peptides to bone, also used as a measure of binding specificity, were determined by testing serial dilutions of the peptide for binding to bone, as represented by DBM. Plotting the absorbance observed across the concentration range for each peptide sequence yielded a binding curve of the peptides to its target substrate from which can be determined an EC50. The goal of the screenings and selections was to identify one or more peptides that bind to the selected substrate with binding specificity, with an EC50 of less than or equal to about 10 μM, and for some embodiments, in the nanomolar range (<1 μM).
As a specific example, DBM was placed in a microtiter plate at a concentration of 3 mg equivalents per well, and then the wells were blocked with buffer containing 1% BSA for 1 hour at room temperature. The buffer containing 1% BSA was then aspirated from each well, and added to the wells were the serial dilutions of biotinylated peptide. The microtiter plates were incubated for 1 hour at room temperature on a plate shaker. The DBM was then allowed to settle, and the buffer was then aspirated from the wells. The DBM was washed three times with buffer-T, and then streptavidin-alkaline phosphatase was added. The microtiter plates were incubated for 1 hour at room temperature on a plate shaker. The DBM was then allowed to settle, and the buffer was then aspirated from the wells. The DBM was washed three times with buffer-T, pNPP (p-nitrophenyl phosphate) was used to develop the assay, and the absorbance was recorded at 405 nm. An estimate of the relative affinity (binding specificity, EC50) of a peptide for bone can be made by determining the concentration of peptide that gives one-half the maximal signal in the assay.
Example 1 illustrates methods to determine the relative binding strengths of peptide to bone. […] A biotin molecule was linked to the C-terminal lysine. Also shown in Table 3 are the relative binding strengths expressed as EC50 (μM) to bone as represented by DBM of human origin. It is noted that the EC50 values were the same or substantially similar when DBM of rabbit origin was used.
Relative binding strength embodiments of the compositions to bone, also used as a measure of binding specificity, were determined by testing serial dilutions of the composition for binding to bone, as described in Example 1 Section B. Plotting the absorbance observed across the concentration range for each composition yielded a binding curve and rough dissociation constant of the composition for bone. Similar to a peptide having binding specificity for bone from which the composition is made, one property of the composition embodiments is that they bind to bone with binding specificity as measured by an EC50 of less than or equal to about 10 μM, and for some embodiments, in the nanomolar range (<1 μM). Using the methods outlined in Example 1B herein, assayed were the relative binding strengths of […] illustrative composition embodiments which include the amino acid sequences shown in SEQ ID NOs: 137, 138, 139, 140, 141 & 142, see Table 7, and synthesized to include a C-terminal amino linker which was biotinylated to facilitate determination of the relative binding strengths to bone. Shown in Table 8 are the relative binding strengths of composition embodiments to bone, as represented by DBM, expressed as EC50 (in μM).

cancellous bone (CNB) = experiment: Biotinylated peptide binding to cancellous bone
Procedure: as §2

human growth hormone = human growth hormone (Homo sapiens, UniProt P01241); settings: cited from earlier work
human growth hormone, sequence (P01241 27-217): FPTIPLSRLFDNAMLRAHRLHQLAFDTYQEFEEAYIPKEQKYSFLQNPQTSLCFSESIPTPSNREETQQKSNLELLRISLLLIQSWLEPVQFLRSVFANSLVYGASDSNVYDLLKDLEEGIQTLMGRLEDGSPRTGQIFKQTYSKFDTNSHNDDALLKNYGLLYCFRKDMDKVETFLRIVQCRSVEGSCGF

BMP5 = biological target: T5, BMP5 (Homo sapiens, UniProt P22003); experiment: ELISA-format binding to BMP family members; settings: ELISA-format assay
T5 sequence (P22003 317-454): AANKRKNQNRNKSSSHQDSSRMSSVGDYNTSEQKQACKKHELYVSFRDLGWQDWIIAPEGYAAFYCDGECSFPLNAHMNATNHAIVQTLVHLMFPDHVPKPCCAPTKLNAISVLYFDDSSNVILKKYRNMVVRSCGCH
Procedure: as §1

[5] = DBM of human origin, biotinylated peptide, read-out: Binding specificity for bone (e.g., DBM) EC50
[6] = demineralized bone matrix, read-out: EC50 (μM) for DBM

123 (HTPHPDASIQGV) [compound 123]
Binding to paclitaxel [1]: bind to paclitaxel

121 (SSSCQHVSLLRPSAALGPDNCSR) [compound 121]
Binding specificity for human adipose-derived stem cells [2]: has binding specificity

120 (ALPSTSSQMPQL) [compound 120]
Binding to stem cells (stem cells): binding to stem cells

93 (SSSVDLYFPLKGDVVSR) [compound 93]
Binding specificity for BMP4 (BMP4): showed binding specificity | Binding specificity for BMP7 (BMP7): showed binding specificity | Binding specificity for BMP2 (BMP2): showed binding specificity | Binding specificity for BMP14 (BMP14): showed binding specificity

CC(C)C[C@H](NC(=O)[C@H](CO)NC(=O)[C@H](CCCNC(=N)N)NC(=O)[C@H](Cc1ccccc1)NC(=O)[C@H](CC(=O)O)NC(=O)[C@H](Cc1c[nH]c2ccccc12)NC(=O)[C@@H](N)CO)C(=O)N[C@@H](CCCNC(=N)N)C(=O)N[C@@H](CC(=O)O)C(=O)N[C@@H](Cc1c[nH]c2ccccc12)C(=O)N[C@@H](Cc1c[nH]c2ccccc12)C(=O)N1CCC[C@H]1C(=O)N1CCC[C@H]1C(=O)N[C@@H](C)C(=O)N1CCC[C@H]1C(=O)N[C@@H](CO)C(=O)N[C@@H](CC(C)C)C(=O)N[C@@H](CO)C(=O)N[C@@H](CO)C(=O)N[C@@H](CCCNC(=N)N)C(=O)NCC(=O)N[C@@H](CO)C(=O)N[C@@H](CO)C(=O)NCC(=O)N[C@@H](CCCCNC(=O)CCCC[C@@H]1SC[C@@H]2NC(=O)N[C@@H]21)C(=O)O [compound 45] (H-SWDFRSLRDWWPPAPSLSSRGSSGK(Biotin)-OH)
EC50 [3]: < 1 µM | EC50 [4, 5]: < 1 µM | EC50 [4, 6]: < 1 µM | EC50 (cancellous bone (CNB)): < 1 µM

CC(C)[C@H](NC(=O)[C@@H]1CCCN1C(=O)[C@H](C)NC(=O)[C@H](C)NC(=O)[C@H](CO)NC(=O)CNC(=O)[C@H](CC(N)=O)NC(=O)[C@H](Cc1c[nH]c2ccccc12)NC(=O)[C@H](Cc1ccccc1)NC(=O)CNC(=O)[C@H](Cc1c[nH]c2ccccc12)NC(=O)[C@H](Cc1c[nH]c2ccccc12)NC(=O)[C@@H](N)CO)C(=O)N[C@@H](Cc1c[nH]c2ccccc12)C(=O)N[C@@H](CO)C(=O)N[C@@H](CCCNC(=N)N)C(=O)NCC(=O)N[C@@H](CO)C(=O)N[C@@H](CO)C(=O)NCC(=O)N[C@@H](CCCCNC(=O)CCCC[C@@H]1SC[C@@H]2NC(=O)N[C@@H]21)C(=O)O [compound 41] (H-SWWGFWNGSAAPVWSRGSSGK(Biotin)-OH)
EC50 [3]: < 0.1 µM | EC50 [4, 5]: < 0.1 µM | EC50 [4, 6]: < 0.1 µM | EC50 (cancellous bone (CNB)): ≤ 0.1 µM

58 (SSWEVFSSLESGSVGAGAGSR) [compound 58]
Binding specificity for BMP4 (BMP4): showed binding specificity | Binding specificity for BMP7 (BMP7): showed binding specificity | Binding specificity for BMP2 (BMP2): showed binding specificity | Binding specificity for BMP14 (BMP14): showed binding specificity

118 (GGALGFPLKGEVVEGWA) [compound 118]
Binding specificity for BMP4 (BMP4): showed binding specificity | Binding specificity for BMP7 (BMP7): showed binding specificity | Binding specificity for BMP2 (BMP2): showed binding specificity | Binding specificity for BMP14 (BMP14): showed binding specificity

C[C@H](NC(=O)CNC(=O)[C@H](CO)NC(=O)CNC(=O)[C@H](Cc1c[nH]c2ccccc12)NC(=O)[C@H](Cc1c[nH]c2ccccc12)NC(=O)[C@H](Cc1c[nH]c2ccccc12)NC(=O)[C@H](CO)NC(=O)CNC(=O)[C@H](Cc1ccccc1)NC(=O)[C@@H](N)CO)C(=O)N[C@@H](C)C(=O)N[C@@H](CO)C(=O)N[C@@H](CO)C(=O)N[C@@H](CCCNC(=N)N)C(=O)NCC(=O)N[C@@H](CO)C(=O)N[C@@H](CO)C(=O)NCC(=O)N[C@@H](CCCCNC(=O)CCCC[C@@H]1SC[C@@H]2NC(=O)N[C@@H]21)C(=O)O [compound 42] (H-SFGSWWWGSGAASSRGSSGK(Biotin)-OH)
EC50 [3]: < 0.1 µM | EC50 [4, 5]: < 0.1 µM | EC50 [4, 6]: < 0.1 µM | EC50 (cancellous bone (CNB)): < 0.5 µM

124 (VMNV) [compound 124]
Binding to human growth hormone (human growth hormone): found to bind to human growth hormone

91 (GGGAWEAFSSLSGSRV) [compound 91]
Binding specificity for BMP4 (BMP4): displayed binding specificity | Binding specificity for BMP7 (BMP7): displayed binding specificity | Binding specificity for BMP2 (BMP2): displayed binding specificity | Binding specificity for BMP14 (BMP14): displayed binding specificity | Binding specificity for BMP5 (BMP5): displayed binding specificity

— US7977313B2, “Methods and compositions for promoting localization of pharmaceutically active agents to bone” (Affinergy, Inc., priority 2007, dated 2011)
